What was measured:
[1] = tested on: T1, O=[N+]([O-])c1ccc(O[C@H]2O[C@H](CO)[C@H](O)[C@H](O)[C@H]2O)cc1; test: purified protein; format: biochemical, Pedobacter panaciterrae
T1 construct: recombinant, E. coli BL21 Gold (DE3), pET28(a), N-terminal His-tag kept for kinetics (thrombin site); for crystals His-tag cut off at introduced TEV site

[2] = substrate: O=[N+]([O-])c1ccc(O[C@H]2O[C@H](CO)[C@H](O)[C@H](O)[C@H]2O)cc1; test: purified protein; format: biochemical, Bacteroides fragilis; conditions: 50 mM sodium phosphate pH 7.5
[3] = 50 mM sodium phosphate pH 7.5, 25.0 °C

Molecule PpaGal (Pedobacter panaciterrae) has a Km ([1]; 50 mM sodium phosphate pH 7.5) of 3.512 ± 0.413 mM.

With PpaGal (Pedobacter panaciterrae; W227Y) the Km [1, 3] was 3.43 ± 0.34 mM and the kcat [1, 3] was 0.25 ± 0.01 s⁻¹.

B1: BfGalB (Bacteroides fragilis NCTC 9343) (protein)
chain: QERVYDISQFGLKANSKKNASPVVRKAIAKIKAECRDGEKVILRFPAGRYNFHEAGSTVREYYISNHDQDNPKKVGIALEDMKNLTIDGQGSEFVFYGRMIPVSLLRSENCVLKNFSIDFEQPHIAQVQVVENDPEKGITFEPAPWVDYRISKDSVFEGLGEGWVMRYSWGIAFDGKTKHVVYNTSDIGCPTKGAFEVAPRRICSPKWKDARLVPGTVVAMRGWGRPTPGIFMSHDVNTSLLDVKVHYAEGMGLLAQLCEDITLDGFGVCLKGDNDPRYFTTQADATHFSGCKGKIVSKNGLYEGMMDDAINVHGTYLKVIKRVDDHTLIGRYMHDQSWGFEWGRPGDDVQFVRSETMELIGKQNQITAIRPYDKGEIRGAREFSITFKEAIDPAINEKSGFGIENLTWTPEVLFAGNTIRNNRARGTLFSTPKKTVVEDNLFDHTSGTAILLCGDCNGWFETGACRDVTIRRNRFINALTNMFQFTNAVISIYPEIPNLKDQQKYFHGGKDGGIVIEDNEFDTFDAPILYAKSVDGLIFRNNVIKTNTEFKPFHWNKDRFLLERVTNVKISE
notes: recombinant, E. coli BL21 Gold (DE3), pET28(a), N-terminal His-tag, thrombin site
B1 gave a Km [2] of 6.950 ± 0.710 mM and a kcat [2] of 0.753 ± 0.082 s⁻¹.

— PMC12002104, “Identification and Protein Engineering of Galactosidases for the Conversion of Blood Type B to Blood Type O” (Chembiochem, 2025)
